Experimental data from patent publication US20110038869A1 (Genmab, published 2011).

Assays:
[1] = biological target: T1, full length CD32b2 on transfected IIA1.6 cells (human, UniProt P31994-2 43-291); assay: flow cytometry on IIA1.6-CD32b2 cells
T1 construct: whole, on cells; also called IIA1.6-CD32b2
T1 sequence (looked up): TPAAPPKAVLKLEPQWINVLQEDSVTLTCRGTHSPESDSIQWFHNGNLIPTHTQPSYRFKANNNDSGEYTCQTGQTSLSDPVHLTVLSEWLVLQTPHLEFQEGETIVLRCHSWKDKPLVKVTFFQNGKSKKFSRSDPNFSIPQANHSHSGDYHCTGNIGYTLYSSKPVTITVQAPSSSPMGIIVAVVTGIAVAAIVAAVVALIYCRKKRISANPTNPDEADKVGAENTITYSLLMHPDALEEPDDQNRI
Experimental: After harvesting and counting, IIA1.6 cells stably transfected with full length CD32a and CD32b (van den Herik-Oudijk et al., 1994), control IIA1.6 cells and Daudi-luc cells were resuspended in PBS (1×10⁶ cells/ml). Cells were put in 96-well V-bottom plates (100 μl/well) and washed twice with FACS buffer (PBS supplemented with 0.1% BSA and 0.02% Na-azide). Thereafter, 50 μl of serially diluted HuMab in FACS buffer was added to the cells and incubated for 30 minutes at 4° C. After washing three times with FACS buffer, 50 μl of phycoerythrin (PE)-conjugated rabbit anti-human IgG (Jackson ImmunoResearch Europe), diluted 1:200 in FACS buffer, was added. After 30 minutes at 4° C. (in the dark), cells were washed three times, and specific binding of the HuMabs was detected by flow cytometry on a FACSCalibur (BD Biosciences). […] Binding curves were analyzed using non-linear regression (sigmoidal dose-response with variable slope) using GraphPad Prism V4.03 software (GraphPad Software, San Diego, Calif., USA).
To analyze binding of anti-CD32b HuMabs to CD32b1 and CD32b2, IIA1.6 cells transfected with full length CD32b1 or CD32b2 (van den Herik-Oudijk et al., 1994) were prepared as described supra. The assay was performed as described supra. Flow cytometry was performed on a FACS Canto II (BD Biosciences).

[2] = biological target: T2, biotinylated CD32bECDHis (human, UniProt P31994 43-223, limits assumed, biotinylated (sites not given)); assay: competition ELISA, competitor 016
T2 sequence (looked up): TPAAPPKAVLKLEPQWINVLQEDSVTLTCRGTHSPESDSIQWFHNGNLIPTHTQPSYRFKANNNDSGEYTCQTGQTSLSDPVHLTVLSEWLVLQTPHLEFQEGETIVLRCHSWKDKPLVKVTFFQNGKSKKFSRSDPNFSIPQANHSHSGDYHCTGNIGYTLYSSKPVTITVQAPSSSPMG
Experimental: (§1) ELISA wells were coated overnight at 4° C. with anti-CD32b HuMabs serially diluted in PBS. The ELISA wells were washed with PBS, blocked for one hour at room temperature with 2% (v/v) chicken serum (Gibco, Paisley, Scotland) in PBS and washed again with PBS. Subsequently, the immobilized antibodies were incubated with biotinylated CD32bECDHis serially diluted in PBSTC. After washing with PBS/Tween, bound biotinylated CD32bECDHis was incubated with Streptavidin-poly-HRP (Sanquin, Amsterdam, The Netherlands) for 1 hr at RT an the reaction was developed as described supra.
(§2) To this end, ELISA wells coated with anti-CD32b HuMabs were incubated in the presence of an excess of CD32b-specific antibody and the predetermined concentration of biotinylated CD32bECDHis in fluid phase. The reaction was developed as described.

[3] = biological target: T2, biotinylated CD32bECDHis; assay: competition ELISA, competitor 020
Experimental: as §1, §2

[4] = biological target: T2, biotinylated CD32bECDHis; assay: competition ELISA, competitor 022
Experimental: as §1, §2

[5] = biological target: T2, biotinylated CD32bECDHis; assay: competition ELISA, competitor 024
Experimental: as §1, §2

[6] = biological target: T2, biotinylated CD32bECDHis; assay: competition ELISA, competitor 026
Experimental: as §1, §2

[7] = biological target: T2, biotinylated CD32bECDHis; assay: competition ELISA, competitor 028
Experimental: as §1, §2

[8] = biological target: T2, biotinylated CD32bECDHis; assay: competition ELISA, competitor 034
Experimental: as §1, §2

[9] = biological target: T2, biotinylated CD32bECDHis; assay: competition ELISA, competitor 038
Experimental: as §1, §2

[10] = biological target: T2, biotinylated CD32bECDHis; assay: competition ELISA, competitor 053
Experimental: as §1, §2

[11] = biological target: T2, biotinylated CD32bECDHis; assay: competition ELISA, competitor 063
Experimental: as §1, §2

[12] = biological target: T2, biotinylated CD32bECDHis; assay: competition ELISA, competitor 2B6
Experimental: as §1, §2

[13] = biological target: T3, CD32bECDHis (human, UniProt P31994 43-223, limits assumed); assay: TR-FRET competition against HuMab-KLH-AlexaFluor 647 (N = 2)
T3 construct: Produced in HEK-293F cells; also called extracellular domain of CD32b with C-terminal His tag; soluble CD32b
T3 sequence (looked up): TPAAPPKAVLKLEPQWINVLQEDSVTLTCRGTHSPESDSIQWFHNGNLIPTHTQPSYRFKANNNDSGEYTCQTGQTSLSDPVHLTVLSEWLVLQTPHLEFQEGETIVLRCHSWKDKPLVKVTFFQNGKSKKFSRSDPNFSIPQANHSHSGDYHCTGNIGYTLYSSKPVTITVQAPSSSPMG
Text: To study the interaction of anti-CD32b HuMabs with CD32b and CD32a in more detail TR-FRET technology was applied. To this end, CD32bECDHis and CD32aECDHis were labeled with a fluorescent donor molecule directed against the histidine tag (Anti-6×His Europium3+, PerkinElmer, Boston Mass.).
Briefly, all dilutions were made in 0.5× Lance detection buffer (PerkinElmer, Boston Mass.) supplemented with 0.2% BSA (obtained via dilution of 7.5% BSA Stabilizer solution, cat: CR84-100, PerkinElmer) and 0.03% (v/v) Tween-20 (Riedel de Haen, Seelze, Germany). CD32bECDHis and CD32aECDHis were diluted to 0.5 μg/ml. […] Anti-6×His Europium3+ (PerkinElmer, Boston Mass.) was diluted to 0.15 μg/ml. […] After overnight incubation at 4° C. in the dark, fluorescence was measured using an EnVision 2101 Multilabel reader (PerkinElmer, Boston, Mass.) applying the following settings; Lance/Delfia dual mirror, emission filter 615-665 nm, excitation filter 320 nm, delay time 60 μs, window 100 μs, 100 flashes, 2000 μs per cycle and bidirectional row-by-row reading. Binding curves were analyzed using non-linear regression (sigmoidal dose-response with variable slope) using GraphPad Prism V4.03 software (GraphPad Software, San Diego, Calif., USA).

B1: Antibody 034 (antibody, human IgG1, V domains shown)
VH: EVQLLESGGGLVQPGGSLRLSCAASGFTFSNFVMSWVRQAPGKGLEWVSGISGSGGNTDHADSVKGRFTISRDNSKNTVYLQMNSLRAEDTAVYYCAKDSGGLFDYWGLGTLVTVSS
VL: not shown
notes: Human antibody; also called HuMab 034
Q: Which EC50 [1] does the source give for B1 here?
A: Its EC50 is 69 nM.

Q: And the “% residual binding” value [2]?
A: Its value is 98%.

Q: What about the “% residual binding” value [3] of the same binder?
A: Its value is 83%.

Q: And the “% residual binding” value [4]?
A: Its value is 63%.

Q: What about the “% residual binding” value [5] of the same binder?
A: Its value is 56%.

Q: What about the “% residual binding” value [6] of the same binder?
A: The value was 83%.

Q: And the “% residual binding” value [7]?
A: Its value is 75%.

Q: And the “% residual binding” value [8]?
A: Its value is 23%.

Q: What about the “% residual binding” value [9] of the same binder?
A: The value was 98%.

Q: What about the “% residual binding” value [10] of the same binder?
A: The value was 90%.

Q: And the “% residual binding” value [11]?
A: Its value is 89%.

Q: What about the “% residual binding” value [12] of the same binder?
A: Its value is 90%.

Q: And the IC50 [13]?
A: The IC50 was 0.45 nM.
